Experimental data as given in patent US20230226096A1 (Orna Therapeutics, Inc., priority 2020, published 2023).

B1: Rhimavirus A (nucleic acid)
DNA: CGAATTCCGGACATCTCCTTTCGGGGGCGAGCGTCACCGTGCCCCTCATGGAGGCAACTGTGCCTCTAATCGGTGACCCACTGAGAAAATTTTCTTTCTACGTGGCTAAACAATGCAACTTTATAATAACACAAATTTAATGCTTAATCTTAACACCAAAGATTTGAACATATGTTTGGAAAGTGGCACACTTCAAACATTGCATAGTTGCTAGGGGTGAAGTCCCTTTAAGGGGTTGCAGAGGATCTTTCCTCTTTATGAGCGGCTAGGAGTATCTTCTTGATATTATGTGGTCGTGCAACTCACTTCCCAGATGTATGACGGTGTACTAAGCGATTGGAACTAGTCATAACCTCTTTGAATTTTGGTATTGCGAGTCTAGCAGGGGGATATTTACCGCTAAAGGGTGACACACTCGTGAGGGTGGCCTTTGGTGTGTGTATATTTATTCCGCCCATCTTGCATGGGGTGCTAAAATTCTAATGCTGTGAAATAACCATTTTCTGAATACATTCTCTACATTTGGAGTCAAATATGAGGAATGCCACTCAGGTACCCTTGACATGATCTTGGATCTGAGAGTGGGCTAATTATCTAATTATTTGGCGACTTTCTAAAATCTTCTGTTTTTAGTGGTGACAATTTATGGTTATAAA
B2: Hepacivirus J (nucleic acid)
DNA: GCCGCTCCCGAAAGGGAGTCCGGCGCGTCATCCCACTCCGAGGAGTGGGGTGGCGTCCCCGTGTGCCGGGGAACCATGAAGCCTAAGGGCATCCACATTTTAGAATGAACTTGAAGCTTCGTTTCGCTGGCCGGAAAGTCCTGGGTTCCCATGGCCAGGGTTCCGCAGGTGGGTAAATCCCGGTGGGGTTCCATCCAGGATATACGGCAGGCGGGCGTAGTCCGGCGGTTCGGACGACGTGTGGGTCGCCTACGGTGGATTGTTCACAGGATGGGCACTCCGGTGTGAATAGGCCCCGTCAGGGTGCGCTGACGTTAAACTCAGGCCTTGCCTGGTGTTCGGGGAGGATTGCAGGGCCACGCCGCCTCTAAGGGCCGTATGGCACAGTACTTCTTCGGGCGGGTTGTCAAGGCCCTCCAACGCGACACCAGTGCCTCGGCAGGCATGGGGCCACCCAGCTCGGCGTCCCGCACACAGACGGCGTAGGGGAAAATCAGCAATGTGACCCCGGGTGGCATTTTCCTTCTCTCTACTTCCATGCATGATCAACCGCAATC
modifications: Hepacivirus J
B3: Antarctic penguin virus A (nucleic acid)
DNA: CTAGGAGACTACGCAGTGGGATAAGATGACTATGATGTCGTACGGGCAGAAGCCAGTACAGTCGAAGTCGAGACCGACGTCGAGGATTTGACTCTGCCTGACCTAGTGCCATC
modifications: chemistry not fully specified; the letters are possibly those of the target site
B4: Bat sapelovirus (nucleic acid, listed as Sapelovirus sp.)
DNA: GACAGGTGTTTTGGAGGGCGGATGACGATATCTGGCTGGCCACCAGGGAATAACGGCAAATGTCTGATCATACGGTTCACAAGTCTACCGGCGATAGTGGTTCAACACCATGTGTAGCAGGGATTCTTGCGTATGTGAAGGCGACAGTGC
B5: Ball python nidovirus (nucleic acid)
DNA: CCCCTTCACCCATAGGCACTAGGAGAACAGGATAACCCCTAACGGGGCATCCTGCCTGTGACCTTTCAGATTCGCTAGTTAGATATCTTCACAGACTCTGCTAGGCTTCTGACCCAGTCCGTTCCCAAAGTCCGTTACCGCCCGAGTAGCGCTTAGGCGCGAAAGGGACGGAAGTACCTCCAGTAAGCGAAAGCTGAAGTAAGGGAAATACGGCAAGACTAACTTGTTAGTCTTACAGTGTGGATAACCTGGTAGTTATCCCCGACAAGAGACCTGACTCGATGTGAAAACATCCAACTAGGTTGGCTTCAAACTAGCTACAGGCAGGATATCCCCCAACGGGGCCTCCAAGGAATCGAGAACCAACCCTCATTCCACGTCTGTAGTAAGCAAAAACAGGGGCGATCTTCACCGACACCTCTCACCACAGAGCACACCAACCTCTGTGAAGCCAATTTCCTCGTCCAAGGACAGGTTATTGAGGGTCAACTTTCTTCCGACCAGAAGAAGGGATTTCCTACCAAAAGAAAAACCAAATCCACCAACACCACAAGGTAAAACAACAACTTGTGAAGCCAATACTTAGTCAAAGACTAACTATTGAGGGTCAACTTTCTCTTCAATAGAGAAGGGATTTCCTGGTAAAACAAATAACAACAACTAACATCAGCAACT
modifications: Ball python nidovirus
B6: Basella alba endornavirus (nucleic acid)
DNA: GGAATATGGCTAATCGGCTTATTCTAATCAAACGCAAAAGACTTATGACACAGACCGGACCTGAACGAGGTGATAAAACACCTCGTTCAGGTTCAAAACGTAGAAGATTCATTCCTCCGATTAGAAATACAACTACGTCTAAGCACGATAGAGATGGTATCAAGATCGGTTTTAGACCACGAGAAAATCGGCAAATGAAAGTACAAGTTGGGTGGTTTAAATTACCAAGAACAGTAACATTCAAGAACAACGGCAACCCGTTTGTTACCTCATTTCGTAAATTGTTTAGAAGTAACAAAGATAAATTATTTAATGGTGGGAAGAACCTAAGTACAGTACCAGCCAGAAGTAGTGAAATGACAGAAATGTTTATGTTCATGTCCACGCTAGAGGGCCAATTGTCAATCCAAGATCGAGATCCAAAAATAATCAATAAGTCTATATACATGATAGAGGTA
B7: Bat Picornavirus 2 (nucleic acid)
DNA: GGGTTTTACGAAACCCGTATACACCAGACCTTTTCTCCCCTCCCCCTCCACCTACCTTTTCCCCCTCTTTGGACCGAAACAAGGACACGTAAGTGGAAACGCGATTTTATATGTGGTTGGCCACCACGGAATAACGGCAATTGTCTACATGTGGGAAGTGCAACCTCCCTAGCCGATAACCCCTGACCGGGTGTGTAGGATAGGAAAGGTGCCCACTGTGGGCGACAGGTTATGGTAGAGTGGATACCTAGCCAGGGGCAATGGGACTGCTTTGCATATCCCTAATGAAGTATTGAGATTTCTCTGCTCATTACCCGGTGATGGTTGTGTGGGGGGGGCCCCATACACTAGATCCATACTGCCTGATAGGGTCGCGGCTGGCCGACCATAACCTGTATAGTCAGTTGAATTCAGCCAAG
B8: Icavirus (nucleic acid)
DNA: CGAAGTTTAAGCTAAGCACCCTCGGGCGTTCCCGGATTATGTGATCACATCAATTTGATGGCTGGTCACCACGCAACGCCTGGAGAGATACTCTTACTTTTCTCTTAAGATCCCCGGTCATTTGACGCTTGTAGGATGATAGGGTTATTTTCCACTATAAATACTTTCATACTCTTGGATGTTCTATATCCAAGACGGGAGGACCTACCCCGTACCCCTTAGAGGTGAGATGCCAAGAACAGGCCCTTTCTGTTCTCTCGACAATGGCATCATAGGCAACAAGCATCACACCAAGATTGCTAAGTTTTGTTAAGAGTTCTTCAAGCTATAGGGTGGCTGTAGCGACCTTCTGATGCCTGCGGATTTCCCCACGGAGCGATCCGTGCCACAGGGGCCAAAAGCCACGGCTAACGCCCATCAGGAGCGGCACTTACCCCGTGCCCCACCCTTGAAACTTGAATGTTCACACTGGCTTCTCTCGGCTTTCTGAACTGTCTGCTTGTTGGGGCCCCGAAGGATGCCCTGGAGGTACCCCATTTTATGGGATCTGACCAGGGGACACCTCAGCTCTCTAAGTTGCTGGTGTTTAAAAAACGTCTAAGGGCCCCCACCCCTTAGGTGGAGGGATCCACCTTTCCTTTATTTTTTAAAACTCTTTTATGGTCACAATTGTTT
B9: Bat Picornavirus 1 (nucleic acid)
DNA: GAAACCCGTATACACCGGACCTTTTCTCCCCTCCCTCTCCACTTACCTTTTTCCCCTCTTCGGCATGAAACAAGGATTATTCAAGTGGAAACGCGATTTAATATGCGGCTGGCCACCGCGGAATAACGGCAATTGTGTATCTGCTGGAAGCCAAGCCTGCCTAGCCGATAGCCCTTGACCGGGTGTGTAGGATAGCCCAGGAACCAGCAATACGCGACAGGTTATGGTAGAGTAGATACCTAGCCAGGGGCAATGGGACTGCATTGCATATCCCTAATGAACCATTGAGATTTCTCTGGTCATTACCCGGTGATGGTTACTAGAGGGGGGCCTCTAGTACTAGATCTATACTGCCTGATAGGGTCGCGGCTGGCCGACCATGACCTGTATAGTCAGTTGATTTGAGCAAT
B10: Bat Hp-betacoronavirus (nucleic acid)
DNA: TTAAGCTTCGGCTTGTTGCATAGGACCGGAAAGGTACTATCTACCCTAACTCTTGTAGTTAGACTCTCTAAACGAACTTTAAAACTGGTTGTGTCCTTCAGTAGTCTGTATGGCCATTGGAGGCACACCGGTAATTATCAAATACTAAGAAGATTCATAGTACATCCTTGTCTAGCTTTTGGTTGGCAGTGAGCCTACGGTTTCGTCCGTGTCGCTCACAATTATCCACACAGTAGGTTTCGTCCGCTGTGGTTGAGTTGCTAGTCCGTTGCTGTTTCGTCAGCCATCTACAACTCGACACC
modifications: Bat Hp-betacoronavirus
B11: Avisivirus Pf-CHK1 (nucleic acid, listed as Avisivirus sp.)
DNA: CATTCCCCTTTCCCCAGCCATGGGTTAAATGGCCCCTCACCAGGTTCGGTGCTGTCTAGGCTTCCAGTAAAGAAGTCAACCGAGCATTGAACAAAACCTCAGTGGGTATGGTAGTTAACCCCGTCCACTGGACAACTTTGTCCTCTTAAAAGTGGATCAATCCACCCCAACTCCCCCCCTAGCCACCTGAGCCATGGTGGATAGCAGTGACGAAACTAGGGACCCCAATACCTCTAGTGCCAAGAGAATTCCCCCCTCGCGAGAGGTGCTCTTGGGCCCGAAAGGCTAGTTGGCAGGGTGAAGTGAAGGAAGCTGCTAGCGTGGCAACCTTAAGCGTAGCCCGAAGCTGACCTTAGAGGTTAACCCTAGTGGACCACTGGATGAAGCTGTGGAGGTGGTGGATAGGAAAGTTGGCCACTTGTGAGTAGATGCCCAGAAGGCATAAGGCTGATCTGGGGCCAGTGACTATACCGTTCCGGTAAACCTGGTATAAAAACCATGAAAGCAAGTGGGTTTAAAATTTCTTCTAATTCCTTCATTTCAGTAGTGATAACTGGCAGA

System: HEK293 cells
Type: cell-based, human
Details: luminescence from secreted Gluc in supernatant 24 hours after transfection of HEK293 cells; circular RNA encoding Gluc with the named IRES (UTR truncated to 675 nt)

Molecule | Expression
B1 | 8.42E+05
B2 | 7.65E+04
B3 | 8.42E+04
B4 | 8.05E+04
B5 | 8.25E+04
B6 | 7.65E+04
B7 | 7.99E+07
B8 | 4.41E+06
B9 | 1.85E+07
B10 | 8.47E+04
B11 | 1.19E+05
